# Measured values taken from the supplement of paper PMC11316812.
# ± gives the standard deviation of the averaged measurements.
# Legend:
# MCF7 = assay: percentage of EdU-negative (G0-arrested) nuclei per well, 72 h; higher = more G0 arrest; conditions: reference: sequence is the full UniProt precursor, the tested protein was the secreted form or ectodomain
# hTERT-HMEC = assay: as above; conditions: reference: sequence is the full UniProt precursor, the tested protein was the secreted form or ectodomain
# [1] = protein concentration 0.01975 µM
# [2] = protein concentration 0.1975 µM
# [3] = protein concentration 0.03125 µM
# [4] = protein concentration 0.3125 µM
# [5] = protein concentration 0.0225 µM
# [6] = protein concentration 0.0357143 µM
# [7] = protein concentration 0.357143 µM
# [8] = protein concentration 0.0135 µM
# [9] = protein concentration 0.0257143 µM
# [10] = protein concentration 0.257143 µM
# 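Further: secreted proteins added to cultured cells, EdU pulse at the end, nuclei found by Hoechst imaging, EdU status from nuclear versus surrounding ring intensity ratio, PBS as neutral control.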
sequence,measurement,setting,value
MWGLLLALAAFAPAVGPALGAPRNSVLGLAQPGTTKVPGSTPALHSSPAQPPAETANGTSEQHVRIRVIKKKKVIMKKRKKLTLTRPTPLVTAGPLVTPTPAGTLDPAEKQETGCPPLGLESLRVSDSRLEASSSQSFGLGPHRGRLNIQSGLEDGDLYDGAWCAEEQDADPWFQVDAGHPTRFSGVITQGRNSVWRYDWVTSYKVQFSNDSRTWWGSRNHSSGMDAVFPANSDPETPVLNLLPEPQVARFIRLLPQTWLQGGAPCLRAEILACPVSDPNDLFLEAPASGSSDPLDFQHHNYKAMRKLMKQVQEQCPNITRIYSIGKSYQGLKLYVMEMSDKPGEHELGEPEVRYVAGMHGNEALGRELLLLLMQFLCHEFLRGNPRVTRLLSEMRIHLLPSMNPDGYEIAYHRGSELVGWAEGRWNNQSIDLNHNFADLNTPLWEAQDDGKVPHIVPNHHLPLPTYYTLPNATVAPETRAVIKWMKRIPFVLSANLHGGELVVSYPFDMTRTPWAARELTPTPDDAVFRWLSTVYAGSNLAMQDTSRRPCHSQDFSVHGNIINGADWHTVPGSMNDFSYLHTNCFEVTVELSCDKFPHENELPQEWENNKDALLTYLEQVRMGIAGVVRDKDTELGIADAVIAVDGINHDVTTAWGGDYWRLLTPGDYMVTASAEGYHSVTRNCRVTFEEGPFPCNFVLTKTPKQRLRELLAAGAKVPPDLRRRLERLRGQKD [Q96SM3],percentage of EdU-negative,MCF7; [1],26.1 ± 3.2%
same,percentage of EdU-negative,MCF7; [2],28.5 ± 1.1%
same,percentage of EdU-negative,hTERT-HMEC; [1],5.64 ± 1.2%
same,percentage of EdU-negative,hTERT-HMEC; [2],5.93 ± 0.071%
MWKRWLALALALVAVAWVRAEEELRSKSKICANVFCGAGRECAVTEKGEPTCLCIEQCKPHKRPVCGSNGKTYLNHCELHRDACLTGSKIQVDYDGHCKEKKSVSPSASPVVCYQSNRDELRRRIIQWLEAEIIPDGWFSKGSNYSEILDKYFKNFDNGDSRLDSSEFLKFVEQNETAINITTYPDQENNKLLRGLCVDALIELSDENADWKLSFQEFLKCLNPSFNPPEKKCALEDETYADGAETEVDCNRCVCACGNWVCTAMTCDGKNQKGAQTQTEEEMTRYVQELQKHQETAEKTKRVSTKEI,percentage of EdU-negative,MCF7; [3],25.7 ± 0.72%
same,percentage of EdU-negative,MCF7; [4],26.2 ± 3.6%
same,percentage of EdU-negative,hTERT-HMEC; [3],4.68 ± 0.16%
same,percentage of EdU-negative,hTERT-HMEC; [4],5.53 ± 0.92%
MWLGRRALCALVLLLACASLGLLYASTRDAPGLRLPLAPWAPPQSPRRPELPDLAPEPRYAHIPVRIKEQVVGLLAWNNCSCESSGGGLPLPFQKQVRAIDLTKAFDPAELRAASATREQEFQAFLSRSQSPADQLLIAPANSPLQYPLQGVEVQPLRSILVPGLSLQAASGQEVYQVNLTASLGTWDVAGEVTGVTLTGEGQADLTLVSPGLDQLNRQLQLVTYSSRSYQTNTADTVRFSTEGHEAAFTIRIRHPPNPRLYPPGSLPQGAQYNISALVTIATKTFLRYDRLRALITSIRRFYPTVTVVIADDSDKPERVSGPYVEHYLMPFGKGWFAGRNLAVSQVTTKYVLWVDDDFVFTARTRLERLVDVLERTPLDLVGGAVREISGFATTYRQLLSVEPGAPGLGNCLRQRRGFHHELVGFPGCVVTDGVVNFFLARTDKVREVGFDPRLSRVAHLEFFLDGLGSLRVGSCSDVVVDHASKLKLPWTSRDAGAETYARYRYPGSLDESQMAKHRLLFFKHRLQCMTSQ,percentage of EdU-negative,MCF7; [3],24.7 ± 5.6%
same,percentage of EdU-negative,MCF7; [4],27 ± 3.4%
same,percentage of EdU-negative,hTERT-HMEC; [3],5.346 ± 0.02%
same,percentage of EdU-negative,hTERT-HMEC; [4],5.55 ± 0.9%
MWLLLTLSFLLASTAAQDGDKLLEGDECAPHSQPWQVALYERGRFNCGASLISPHWVLSAAHCQSRFMRVRLGEHNLRKRDGPEQLRTTSRVIPHPRYEARSHRNDIMLLRLVQPARLNPQVRPAVLPTRCPHPGEACVVSGWGLVSHNEPGTAGSPRSQVSLPDTLHCANISIISDTSCDKSYPGRLTNTMVCAGAEGRGAESCEGDSGGPLVCGGILQGIVSWGDVPCDNTTKPGVYTKVCHYLEWIRETMKRN [Q9H2R5],percentage of EdU-negative,MCF7; [5],22.4 ± 2%
same,percentage of EdU-negative,MCF7; protein concentration 0.225 µM,25.76 ± 0.13%
same,percentage of EdU-negative,hTERT-HMEC; [5],5.58 ± 0.041%
same,percentage of EdU-negative,hTERT-HMEC; protein concentration 0.225 µM,5.86 ± 1.2%
MWLLPALLLLCLSGCLSLKGPGSVTGTAGDSLTVWCQYESMYKGYNKYWCRGQYDTSCESIVETKGEEKVERNGRVSIRDHPEALAFTVTMQNLNEDDAGSYWCKIQTVWVLDSWSRDPSDLVRVYVSPAITTPRRTTHPATPPIFLVVNPGRNLSTGEVLTQNSGFRLSSPHFLLVVLLKLPLLLSMLGAVFWVNRPQWAPPGR [Q496F6],percentage of EdU-negative,MCF7; [5],23.3 ± 1.9%
same,percentage of EdU-negative,MCF7; protein concentration 0.225 µM,26.6 ± 0.81%
same,percentage of EdU-negative,hTERT-HMEC; [5],5.54 ± 0.7%
same,percentage of EdU-negative,hTERT-HMEC; protein concentration 0.225 µM,5.97 ± 1.6%
MWLLVSVILISRISSVGGEAMFCDFPKINHGILYDEEKYKPFSQVPTGEVFYYSCEYNFVSPSKSFWTRITCAEEGWSPTPKCLRLCFFPFVENGHSESSGQTHLEGDTVQIICNTGYRLQNNENNISCVERGWSTPPKCRSTISAEKCGPPPPIDNGDITSFLLSVYAPGSSVEYQCQNLYQLEGNNQITCRNGQWSEPPKCLDPCVISQEIMEKYNIKLKWTNQQKLYSRTGDIVEFVCKSGYHPTKSHSFRAMCQNGKLVYPSCEEK,percentage of EdU-negative,MCF7; [6],26.5 ± 2.9%
same,percentage of EdU-negative,MCF7; [7],27.9 ± 1.9%
same,percentage of EdU-negative,hTERT-HMEC; [6],5.7 ± 0.61%
same,percentage of EdU-negative,hTERT-HMEC; [7],17.5 ± 3.6%
MWLLVSVILISRISSVGGEATFCDFPKINHGILYDEEKYKPFSQVPTGEVFYYSCEYNFVSPSKSFWTRITCTEEGWSPTPKCLRLCFFPFVENGHSESSGQTHLEGDTVQIICNTGYRLQNNENNISCVERGWSTPPKCRSTDTSCVNPPTVQNAHILSRQMSKYPSGERVRYECRSPYEMFGDEEVMCLNGNWTEPPQCKDSTGKCGPPPPIDNGDITSFPLSVYAPASSVEYQCQNLYQLEGNKRITCRNGQWSEPPKCLHPCVISREIMENYNIALRWTAKQKLYLRTGESAEFVCKRGYRLSSRSHTLRTTCWDGKLEYPTCAKR,percentage of EdU-negative,MCF7; [8],25.1 ± 1.9%
same,percentage of EdU-negative,MCF7; protein concentration 0.135 µM,25.3 ± 0.89%
same,percentage of EdU-negative,hTERT-HMEC; [8],5.26 ± 0.45%
same,percentage of EdU-negative,hTERT-HMEC; protein concentration 0.135 µM,5.53 ± 0.48%
MWLPRVSSTAVTALLLAQTFLLLFLVSRPGPSSPAGGEARVHVLVLSSWRSGSSFVGQLFNQHPDVFYLMEPAWHVWTTLSQGSAATLHMAVRDLVRSVFLCDMDVFDAYLPWRRNLSDLFQWAVSRALCSPPACSAFPRGAISSEAVCKPLCARQSFTLAREACRSYSHVVLKEVRFFNLQVLYPLLSDPALNLRIVHLVRDPRAVLRSREQTAKALARDNGIVLGTNGTWVEADPGLRVVREVCRSHVRIAEAATLKPPPFLRGRYRLVRFEDLAREPLAEIRALYAFTGLSLTPQLEAWIHNITHGSGPGARREAFKTSSRNALNVSQAWRHALPFAKIRRVQELCAGALQLLGYRPVYSEDEQRNLALDLVLPRGLNGFTWASSTASHPRN [Q9GZX3],percentage of EdU-negative,MCF7; [5],24.3 ± 0.37%
same,percentage of EdU-negative,MCF7; protein concentration 0.225 µM,31 ± 0.51%
same,percentage of EdU-negative,hTERT-HMEC; [5],5.21 ± 0.9%
same,percentage of EdU-negative,hTERT-HMEC; protein concentration 0.225 µM,23.2 ± 3.6%
MWLRAFILATLSASAAWGHPSSPPVVDTVHGKVLGKFVSLEGFAQPVAIFLGIPFAKPPLGPLRFTPPQPAEPWSFVKNATSYPPMCTQDPKAGQLLSELFTNRKENIPLKLSEDCLYLNIYTPADLTKKNRLPVMVWIHGGGLMVGAASTYDGLALAAHENVVVVTIQYRLGIWGFFSTGDEHSRGNWGHLDQVAALRWVQDNIASFGGNPGSVTIFGESAGGESVSVLVLSPLAKNLFHRAISESGVALTSVLVKKGDVKPLAEQIAITAGCKTTTSAVMVHCLRQKTEEELLETTLKMKFLSLDLQGDPRESQPLLGTVIDGMLLLKTPEELQAERNFHTVPYMVGINKQEFGWLIPMQLMSYPLSEGQLDQKTAMSLLWKSYPLVCIAKELIPEATEKYLGGTDDTVKKKDLFLDLIADVMFGVPSVIVARNHRDAGAPTYMYEFQYRPSFSSDMKPKTVIGDHGDELFSVFGAPFLKEGASEEEIRLSKMVMKFWANFARNGNPNGEGLPHWPEYNQKEGYLQIGANTQAAQKLKDKEVAFWTNLFAKKAVEKPPQTEHIEL,percentage of EdU-negative,MCF7; [6],23.32 ± 0.21%
same,percentage of EdU-negative,MCF7; [7],24.5 ± 1.9%
same,percentage of EdU-negative,hTERT-HMEC; [6],4.96 ± 0.78%
same,percentage of EdU-negative,hTERT-HMEC; [7],6.05 ± 0.03%
MWLRLGPPSLSLSPKPTVGRSLCLTLWFLSLALRASTQAPAPTVNTHFGKLRGARVPLPSEILGPVDQYLGVPYAAPPIGEKRFLPPEPPPSWSGIRNATHFPPVCPQNIHTAVPEVMLPVWFTANLDIVATYIQEPNEDCLYLNVYVPTEDVKRISKECARKPNKKICRKGGSGAKKQGEDLADNDGDEDEDIRDSGAKPVMVYIHGGSYMEGTGNMIDGSILASYGNVIVITLNYRVGVLGFLSTGDQAAKGNYGLLDQIQALRWVSENIAFFGGDPRRITVFGSGIGASCVSLLTLSHHSEGLFQRAIIQSGSALSSWAVNYQPVKYTSLLADKVGCNVLDTVDMVDCLRQKSAKELVEQDIQPARYHVAFGPVIDGDVIPDDPEILMEQGEFLNYDIMLGVNQGEGLKFVEGVVDPEDGVSGTDFDYSVSNFVDNLYGYPEGKDTLRETIKFMYTDWADRDNPETRRKTLVALFTDHQWVEPSVVTADLHARYGSPTYFYAFYHHCQSLMKPAWSDAAHGDEVPYVFGVPMVGPTDLFPCNFSKNDVMLSAVVMTYWTNFAKTGDPNKPVPQDTKFIHTKANRFEEVAWSKYNPRDQLYLHIGLKPRVRDHYRATKVAFWKHLVPHLYNLHDMFHYTSTTTKVPPPDTTHSSHITRRPNGKTWSTKRPAISPAYSNENAQGSWNGDQDAGPLLVENPRDYSTELSVTIAVGASLLFLNVLAFAALYYRKDKRRQEPLRQPSPQRGAGAPELGAAPEEELAALQLGPTHHECEAGPPHDTLRLTALPDYTLTLRRSPDDIPLMTPNTITMIPNSLVGLQTLHPYNTFAAGFNSTGLPHSHSTTRV [Q9NZ94],percentage of EdU-negative,MCF7; [9],24.2 ± 1.1%
same,percentage of EdU-negative,MCF7; [10],24.1 ± 1.1%
same,percentage of EdU-negative,hTERT-HMEC; [9],5.8 ± 1.5%
same,percentage of EdU-negative,hTERT-HMEC; [10],10.2 ± 2.3%
MWNMLIVAMCLALLGCLQAQELQGHVSIILLGATGDLAKKYLWQGLFQLYLDEAGRGHSFSFHGAALTAPKQGQELMAKALESLSCPKDMAPSHCAEHKDQFLQLSQYRQLKTAEDYQALNKDIEAQLQHAGLREAGRIFYFSVPPFAYEDIARNINSSCRPGPGAWLRVVLEKPFGHDHFSAQQLATELGTFFQEEEMYRVDHYLGKQAVAQILPFRDQNRKALDGLWNRHHVERVEIIMKETVDAEGRTSFYEEYGVIRDVLQNHLTEVLTLVAMELPHNVSSAEAVLRHKLQVFQALRGLQRGSAVVGQYQSYSEQVRRELQKPDSFHSLTPTFAAVLVHIDNLRWEGVPFILMSGKALDERVGYARILFKNQACCVQSEKHWAAAQSQCLPRQLVFHIGHGDLGSPAVLVSRNLFRPSLPSSWKEMEGPPGLRLFGSPLSDYYAYSPVRERDAHSVLLSHIFHGRKNFFITTENLLASWNFWTPLLESLAHKAPRLYPGGAENGRLLDFEFSSGRLFFSQQQPEQLVPGPGPAPMPSDFQVLRAKYRESPLVSAWSEELISKLANDIEATAVRAVRRFGQFHLALSGGSSPVALFQQLATAHYGFPWAHTHLWLVDERCVPLSDPESNFQGLQAHLLQHVRIPYYNIHPMPVHLQQRLCAEEDQGAQIYAREISALVANSSFDLVLLGMGADGHTASLFPQSPTGLDGEQLVVLTTSPSQPHRRMSLSLPLINRAKKVAVLVMGRMKREITTLVSRVGHEPKKWPISGVLPHSGQLVWYMDYDAFLG,percentage of EdU-negative,MCF7; [5],23.3 ± 2.2%
same,percentage of EdU-negative,MCF7; protein concentration 0.225 µM,25.2 ± 1.6%
same,percentage of EdU-negative,hTERT-HMEC; [5],5.45 ± 1.2%
same,percentage of EdU-negative,hTERT-HMEC; protein concentration 0.225 µM,7.4 ± 1.2%
